Paper PMC11205257
Where two headings read alike, the source gives them in different places.

Legend:
[1] = target: GRAB CRF1.0 sensor (human (GPCR scaffold cDNA)); assay: other fluorescence titration
[2] = target: GRAB CRF1.0 sensor (human (GPCR scaffold cDNA)); assay: other fluorescence titration; remark: listed apart in the source

Row | EC50 [1] | EC50 [2] | Binder
1 | 69 nM |  | DNPSLSIDLTFHLLRTLLELARTQSQRERAEQNRIIFDSVGK [urocortin 1 (UCN1)]
2 | 33 nM | 18.6 nM | SEEPPISLDLTFHLLREVLEMARAEQLAQQAHSNRKLMEIIGK [corticotropin-releasing factor (CRF)]
